Results taken from patent US20060286609A1 (BIOCHECK, published 2006).

T1: Mouse Id2: Histidine (mouse, UniProt P41136 1-134, limits assumed)
T1 construct: E. coli fusion protein (vector pGW07); also called m-Id2: His; not shown: His-tag
T1 sequence (looked up): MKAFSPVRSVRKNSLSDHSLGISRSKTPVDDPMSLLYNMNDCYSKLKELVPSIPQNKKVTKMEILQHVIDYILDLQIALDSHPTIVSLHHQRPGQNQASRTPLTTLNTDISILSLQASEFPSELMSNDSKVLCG

T2: Mouse Id1: Histidine (mouse, UniProt P20067-2 1-148)
T2 construct: E. coli fusion protein (vector pGW07); also called m-Id1-His; not shown: His-tag
T2 sequence: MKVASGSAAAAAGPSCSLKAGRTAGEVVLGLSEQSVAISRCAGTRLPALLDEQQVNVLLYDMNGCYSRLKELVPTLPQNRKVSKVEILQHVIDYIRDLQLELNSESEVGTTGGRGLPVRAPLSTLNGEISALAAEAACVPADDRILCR

T3: Human Id4: Histidine (human, UniProt P47928 1-161, limits assumed)
T3 construct: E. coli fusion protein (vector pGW07); also called h-Id4: His; not shown: His-tag
T3 sequence (looked up): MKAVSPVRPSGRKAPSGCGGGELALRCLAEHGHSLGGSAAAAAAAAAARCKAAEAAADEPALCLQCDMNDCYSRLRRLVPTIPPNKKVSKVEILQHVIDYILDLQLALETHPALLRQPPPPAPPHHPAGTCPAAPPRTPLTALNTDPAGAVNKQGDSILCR

T4: Human Id2: Histidine (human, UniProt Q02363 1-134, limits assumed)
T4 construct: E. coli fusion protein (vector pGW07); also called h-Id2: His; not shown: His-tag
T4 sequence (looked up): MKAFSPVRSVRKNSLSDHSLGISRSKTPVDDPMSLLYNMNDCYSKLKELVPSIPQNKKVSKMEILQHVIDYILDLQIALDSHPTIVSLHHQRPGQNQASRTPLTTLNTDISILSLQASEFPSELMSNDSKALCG

T5: Mouse Id4: Histidine (mouse, UniProt P41139 1-161, limits assumed)
T5 construct: E. coli fusion protein (vector pGW07); also called m-Id4: His; not shown: His-tag
T5 sequence (looked up): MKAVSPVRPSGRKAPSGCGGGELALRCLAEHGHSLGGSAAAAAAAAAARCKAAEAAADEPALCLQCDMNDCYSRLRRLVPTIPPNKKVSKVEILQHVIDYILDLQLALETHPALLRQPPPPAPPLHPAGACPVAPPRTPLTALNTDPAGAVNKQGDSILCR

T6: Human Id3: Histidine (human, UniProt Q02535 1-119, limits assumed)
T6 construct: E. coli fusion protein (vector pGW07); also called h-Id3: His; not shown: His-tag
T6 sequence (looked up): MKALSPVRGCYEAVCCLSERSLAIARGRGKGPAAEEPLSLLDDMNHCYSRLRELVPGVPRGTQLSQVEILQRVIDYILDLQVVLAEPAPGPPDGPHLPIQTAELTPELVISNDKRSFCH

T7: Mouse Id3: Histidine (mouse, UniProt P41133 1-119, limits assumed)
T7 construct: E. coli fusion protein (vector pGW07); also called m-Id3: His; not shown: His-tag
T7 sequence (looked up): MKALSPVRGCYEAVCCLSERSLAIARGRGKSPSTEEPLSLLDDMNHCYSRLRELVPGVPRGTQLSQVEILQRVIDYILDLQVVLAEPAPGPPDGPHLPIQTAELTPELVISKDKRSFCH


Experiments:
[1] = biological target: T1, Mouse Id2: Histidine; assay: ELISA, coated antigen, Ab 0.025 ug/ml
[2] = biological target: T2, Mouse Id1: Histidine; assay: ELISA, coated antigen, Ab 0.025 ug/ml
[3] = biological target: T3, Human Id4: Histidine; assay: ELISA, coated antigen, Ab 0.025 ug/ml
[4] = biological target: T4, Human Id2: Histidine; assay: ELISA, coated antigen, Ab 0.025 ug/ml
[5] = biological target: T5, Mouse Id4: Histidine; assay: ELISA, coated antigen, Ab 0.005 ug/ml
[6] = biological target: T2, Mouse Id1: Histidine; assay: ELISA, coated antigen, Ab 0.005 ug/ml
[7] = biological target: T6, Human Id3: Histidine; assay: ELISA, coated antigen, Ab 0.005 ug/ml
[8] = biological target: T3, Human Id4: Histidine; assay: ELISA, coated antigen, Ab 0.005 ug/ml
[9] = biological target: T4, Human Id2: Histidine; assay: ELISA, coated antigen, Ab 0.005 ug/ml
[10] = biological target: T7, Mouse Id3: Histidine; assay: ELISA, coated antigen, Ab 0.010 ug/ml
[11] = biological target: T5, Mouse Id4: Histidine; assay: ELISA, coated antigen, Ab 0.010 ug/ml
[12] = biological target: T1, Mouse Id2: Histidine; assay: ELISA, coated antigen, Ab 0.010 ug/ml
[13] = biological target: T2, Mouse Id1: Histidine; assay: ELISA, coated antigen, Ab 0.010 ug/ml
[14] = biological target: T6, Human Id3: Histidine; assay: ELISA, coated antigen, Ab 0.010 ug/ml
[15] = biological target: T3, Human Id4: Histidine; assay: ELISA, coated antigen, Ab 0.010 ug/ml
[16] = biological target: T4, Human Id2: Histidine; assay: ELISA, coated antigen, Ab 0.010 ug/ml
[17] = biological target: T7, Mouse Id3: Histidine; assay: ELISA, coated antigen; relative to mouse Id1
[18] = biological target: T5, Mouse Id4: Histidine; assay: ELISA, coated antigen; relative to mouse Id1
[19] = biological target: T1, Mouse Id2: Histidine; assay: ELISA, coated antigen; relative to mouse Id1
[20] = biological target: T6, Human Id3: Histidine; assay: ELISA, coated antigen; relative to mouse Id1
[21] = biological target: T3, Human Id4: Histidine; assay: ELISA, coated antigen; relative to mouse Id1
[22] = biological target: T4, Human Id2: Histidine; assay: ELISA, coated antigen; relative to mouse Id1

Molecule | A450 [1] | A450 [2] | A450 [3] | A450 [4] | A450 [5] | A450 [6] | A450 [7] | A450 [8] | A450 [9] | A450 [10] | A450 [11] | A450 [12] | A450 [13] | A450 [14] | A450 [15] | A450 [16] | Cross-reactivity (%) [17] | Cross-reactivity (%) [18] | Cross-reactivity (%) [19] | Cross-reactivity (%) [20] | also measured
rabbit monoclonal anti-human Id1, clone #BCH-2/#5-3 (antibody) | 0.048 A450 | 0.053 A450 | 0.049 A450 | 0.049 A450 | 0.045 A450 | 0.063 A450 | 0.048 A450 | 0.049 A450 | 0.049 A450 | 0.048 A450 | 0.043 A450 | 0.049 A450 | 0.068 A450 | 0.044 A450 | 0.045 A450 | 0.046 A450 |  |  |  |  | 
rabbit monoclonal anti-mouse/human Id1, clone #BCH-1/#195-14 (antibody) | 0.049 A450 | 0.876 A450 | 0.045 A450 | 0.05 A450 | 0.047 A450 | 0.249 A450 | 0.047 A450 | 0.044 A450 | 0.048 A450 | 0.047 A450 | 0.045 A450 | 0.048 A450 | 0.424 A450 | 0.048 A450 | 0.046 A450 | 0.054 A450 | < 1% | < 1% | < 1% | < 1% | Cross-reactivity (%) [21]: < 1%; Cross-reactivity (%) [22]: < 1%
rabbit monoclonal anti-mouse Id1, clone #BCH-1/#37-2 (antibody, V domains shown, Rabbit IgG from hybridoma, Protein G purified; also called m Id1 MoAb 37-2; Rabbit Monoclonal Anti-Mouse Id1 (#37-2)) VH: QSVEESGGRLVTPGTPLTLTCKVSGFDINSYAMDWFRQAPGKGLEWIGMMSTRGNTYYTSWAKGRFTISKTSSTTVDLKMTSLTTEDTATYFCARGGLWGPGTLVTVSS VL: RVLTQTASPVSAAVGGTVTINCQASQSVYNGNRLGWYQLKPGQSPKELIHDASTLASGVPSRFRGSGSGTQFTLTINDVQCDDAATYYCVGSYACSTGDCNVFGGGTEVVVK |  |  |  |  |  |  |  |  |  |  |  |  |  |  |  |  | < 1% | < 1% | < 1% | < 1% | Cross-reactivity (%) [21]: < 1%; Cross-reactivity (%) [22]: < 1%
